US20040073013A1 (Chugai, published 2004)

Assays:
[1] = target: T1, human Integrin Associated Protein (IAP) expressed on mouse leukemia cell line L1210 (human, UniProt Q08722 19-323); experiment: flow cytometry, COS7 supernatant on L1210 cells expressing human IAP
T1 construct: whole, on cells; also called human IAP; hIAP/L1210
Experimental: Flow cytometry was performed using the aforementioned culture supernatant of COS7 cells to measure binding to the antigen. The culture supernatant of the COS7 cells expressing the chimera MABL-1 antibody or the COS7 cells expressing the chimera MABL-2 antibody, or human IgG antibody (SIGMA) as a control was added to 4×10⁵ cells of mouse leukemia cell line L1210 expressing human IAP and incubated on ice. After washing, the FITC-labeled anti-human IgG antibody (Cappel) was added thereto. After incubating and washing, the fluorescence intensity thereof was measured using the FACScan apparatus (BECTON DICKINSON).

[2] = target: T1, human Integrin Associated Protein (IAP) …; experiment: flow cytometry, COS7 supernatant on L1210 cells expressing human IAP, anti-FLAG detection
Experimental: Flow cytometry was performed using the culture supernatants of COS7 cells prepared in Example 6.3 (1) to measure the binding of the MABL2-scFVs and sc(Fv)₂ to human Integrin Associated Protein (IAP) antigen. The culture supernatants to be tested or a culture supernatant of COS7 cells as a control was added to 2×10⁵ cells of the mouse leukemia cell line L1210 expressing human IAP. After incubating on ice and washing, 10 μg/mL of the mouse anti-FLAG antibody (SIGMA) was added and then the cells were incubated and washed. Then, the FITC labeled anti-mouse IgG antibody (BECTON DICKINSON) was added thereto and the cells were incubated and washed again. The fluorescence intensity was measured using the FACScan apparatus (BECTON DICKINSON).

[3] = target: secretion-type human IAP antigen (human, UniProt Q08722 19-142, limits assumed); experiment: competitive ELISA on captured secretion-type human IAP; competitor biotinized MABL-2 antibody
Experimental: The binding activity of the reconstructed single-chain Fv of antibody MABL-2 was measured based on the inhibiting activity against the binding of mouse monoclonal antibodies to the antigen.
The anti-FLAG antibody adjusted to 1 μg/ml was added to each well on 96-well plate and incubated at 37° C. for 2 hours. After washing, blocking was performed with 1% BSA-PBS. After incubating and washing at a room temperature, the culture supernatant of COS7 cells into which the secretion-type human IAP antigen gene (SEQ ID No. 26) had been introduced was diluted with PBS into twofold volume and added to each well. After incubating and washing at a room temperature, a mixture of 50 μl of the biotinized MABL-2 antibody adjusted to 100 ng/ml and 50 μl of sequentially diluted supernatant of the COS7 cells expressing the reconstructed single-chain Fv of antibody MABL-2 were added into each well. After incubating and washing at a room temperature, the alkaline phosphatase-conjugated streptoavidin (Zymed) was added into each well. After incubating and washing at a room temperature, the substrate solution (SIGMA) was added and absorbance of the reaction mixture in each well was measured at 405 nm.

T1 sequence (Q08722 19-323): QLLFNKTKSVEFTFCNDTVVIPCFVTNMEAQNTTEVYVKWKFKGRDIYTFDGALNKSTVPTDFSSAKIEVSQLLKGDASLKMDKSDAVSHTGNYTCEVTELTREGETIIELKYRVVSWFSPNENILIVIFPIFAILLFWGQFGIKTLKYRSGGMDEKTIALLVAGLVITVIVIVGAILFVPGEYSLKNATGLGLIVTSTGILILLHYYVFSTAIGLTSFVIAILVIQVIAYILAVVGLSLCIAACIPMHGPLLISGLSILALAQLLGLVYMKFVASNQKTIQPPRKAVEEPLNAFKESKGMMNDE
secretion-type human IAP antigen, sequence (Q08722 other isoform, or with tags, fused parts or gaps limits assumed): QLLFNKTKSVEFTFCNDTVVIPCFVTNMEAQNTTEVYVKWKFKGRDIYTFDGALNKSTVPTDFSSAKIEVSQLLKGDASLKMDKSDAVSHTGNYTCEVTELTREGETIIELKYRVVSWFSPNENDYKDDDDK

Binder | binding result [1] | binding result [2] | binding result [3]
chimera MABL-1 antibody (antibody, V domains shown, Mouse MABL-1 V regions cloned into HEF-kappa and HEF-gamma expression vectors carrying human C regions (WO92/19759); Tested as COS7 culture supernatant) VH: QVQLQQSGPDLVKPGASVKMSCKASGYTFVNHVMHWVKQKPGQGLEWIGYIYPYNDGTKYNEKFKGKATLTSEKSSSAAYMELSSLASEDSAVYYCARGGYYSYDDWGQGTTLTVSS VL: DVVMTQTPLSLPVSLGDQASISCRSSQSLLHSKGNTYLQWYLQKPGQSPKLLIYKVSNRFSGVPDRFSGSGSGTDFTLKISRVEAEDLGVYFCSQSTHVPYTSGGGTKLEIK | binds |  | 
MABL2-scFv <HL-0> (scFv, [H chain V]-[L chain V] without a linker, with a leader at the 5' end and FLAG at the C-terminus; COS7 culture supernatant; also called CF2HL-0/pCOS1) scFv: QVQLQQSGPELVKPGASVKMSCKASGYTFANHVIHWVKQKPGQGLEWIGYIYPYNDGTKYNEKFKDKATLTSDKSSTTAYMDLSSLASEDSAVYYCARGGYYTYDDWGQGTTLTVSSDVVMTQSPLSLPVSLGDQASISCRSSQSLVHSNGKTYLHWYLQKPGQSPKLLIYKVSNRFSGVPDRFSGSGSVTDFTLMISRVEAEDLGVYFCSQSTHVPYTFGGGTKLEIKDYKDDDDK |  | binds | 
MABL2-scFv <LH-0> (scFv, [L chain V]-[H chain V] without a linker, with a leader at the 5' end and FLAG at the C-terminus; COS7 culture supernatant; also called CF2LH-0/pCOS1) scFv: DVVMTQSPLSLPVSLGDQASISCRSSQSLVHSNGKTYLHWYLQKPGQSPKLLIYKVSNRFSGVPDRFSGSGSVTDFTLMISRVEAEDLGVYFCSQSTHVPYTFGGGTKLEIKQVQLQQSGPELVKPGASVKMSCKASGYTFANHVIHWVKQKPGQGLEWIGYIYPYNDGTKYNEKFKDKATLTSDKSSTTAYMDLSSLASEDSAVYYCARGGYYTYDDWGQGTTLTVSSDYKDDDDK |  | binds | 
chimera MABL-2 antibody (antibody, V domains shown, Mouse MABL-2 V regions cloned into HEF-kappa and HEF-gamma expression vectors carrying human C regions (WO92/19759); Tested as COS7 culture supernatant) VH: QVQLQQSGPELVKPGASVKMSCKASGYTFANHVIHWVKQKPGQGLEWIGYIYPYNDGTKYNEKFKDKATLTSDKSSTTAYMDLSSLASEDSAVYYCARGGYYTYDDWGQGTTLTVSS VL: DVVMTQSPLSLPVSLGDQASISCRSSQSLVHSNGKTYLHWYLQKPGQSPKLLIYKVSNRFSGVPDRFSGSGSVTDFTLMISRVEAEDLGVYFCSQSTHVPYTFGGGTKLEIK | binds |  | 
antibody MABL-2 sc(Fv)2, reconstructed polypeptide comprising two H chain V regions and two L chain V regions (other, Single chain VH-VL-VH-VL from plasmid pCHOM2(Fv)2, with a C-terminal FLAG; Eluted at the position of the monomer in gel filtration) QVQLQQSGPELVKPGASVKMSCKASGYTFANHVIHWVKQKPGQGLEWIGYIYPYNDGTKYNEKFKDKATLTSDKSSTTAYMDLSSLASEDSAVYYCARGGYYTYDDWGQGTTLTVSSGGGGSGGGGSGGGGSDVVMTQSPLSLPVSLGDQASISCRSSQSLVHSNGKTYLHWYLQKPGQSPKLLIYKVSNRFSGVPDRFSGSGSVTDFTLMISRVEAEDLGVYFCSQSTHVPYTFGGGTKLEIKGGGGSGGGGSGGGGSVDSQVQLQQSGPELVKPGASVKMSCKASGYTFANHVIHWVKQKPGQGLEWIGYIYPYNDGTKYNEKFKDKATLTSDKSSTTAYMDLSSLASEDSAVYYCARGGYYTYDDWGQGTTLTVSSGGGGSGGGGSGGGGSDVVMTQSPLSLPVSLGDQASISCRSSQSLVHSNGKTYLHWYLQKPGQSPKLLIYKVSNRFSGVPDRFSGSGSVTDFTLMISRVEAEDLGVYFCSQSTHVPYTFGGGTKLEIKDYKDDDDK |  | binds | 
reconstructed single-chain Fv of antibody MABL-2 (MABL2-scFv), from pCHOM2-transfected COS7 cells (scFv, Tested as COS7 culture supernatant; also called MABL2-scFv/COS7) scFv: QVQLQQSGPELVKPGASVKMSCKASGYTFANHVIHWVKQKPGQGLEWIGYIYPYNDGTKYNEKFKDKATLTSDKSSTTAYMDLSSLASEDSAVYYCARGGYYTYDDWGQGTTLTVSSGGGGSGGGGSGGGGSDVVMTQSPLSLPVSLGDQASISCRSSQSLVHSNGKTYLHWYLQKPGQSPKLLIYKVSNRFSGVPDRFSGSGSVTDFTLMISRVEAEDLGVYFCSQSTHVPYTFGGGTKLEIKDYKDDDDK |  | binds | binds
